Measurements taken from the supplement of paper PMC10567573.
± gives the standard deviation.

Assay: protein stability index of a GFP-peptide fusion (GPS, HEK-293T) (PSI 1-6); higher = more stable
[1] = treatment: DMSO, c terminus: a fixed tail appended
[2] = treatment: MLN4924 1 uM, 8 h, c terminus: a fixed tail appended
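Note: 24-mer peptide tiles fused after GFP, lentivirally expressed, FACS-sorted into six equal bins by GFP/DsRed ratio, decoded by Illumina sequencing, PSI is the read-weighted mean bin number.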

Sequence	protein stability index [1]	protein stability index [2]	protein stability index (treatment: DMSO, c terminus: native)	protein stability index (treatment: MLN4924 1 uM, 8 h, c terminus: native)
CHSHTVVQDYSYFFFLRMDENYNL [CCDC3]	2.49 ± 0.68	2.4 ± 0.63		
TLGGKAFHITNDEPIPFWTFLSRI [NSDHL]	2.19 ± 0.096	2.28 ± 0.22		
LVRDWSFPYEYSYGLQGGMAFLDK [ATL3]	1.96 ± 0.23	2.19 ± 0.38		
DSQDLVASFRVTTGTSNTTAIKSI [RBBP5]	3.46 ± 0.24	3.59 ± 0.26		
ALVDGQIFCLHGGLSPSIDTLDHI [PPP2CA]	1.9 ± 0.19	2.19 ± 0.38		
KGAVPRSIPNLAEVKKKGKMKKLG [HDAC6]	4.51 ± 0.36	4.35 ± 0.5		
SGSSYRDALQRYGTSHGAPPARGP [RBMY1A1]	4.1 ± 0.22	4.14 ± 0.25		
KAPKKDVIKMLVNDNKVLRYLAVL [EFHC1]	2.65 ± 0.49	2.44 ± 0.58		
FSAYIDSMAAVPTLELCHDELFAD [CEBPD]	3.29 ± 0.37	3.1 ± 0.3		
MEQPTSSTNGEKTKSPCESNNKKN [SPANXN3]	5.32 ± 0.33	4.92 ± 0.85		
VSTQRSQDHFHVFVGDLSPEITTE [TIA1]	3.98 ± 0.29	3.92 ± 0.41		
EKEQEKMRQDLEEERVALNTEIEK [PKD2L1]	5.45 ± 0.27	5.64 ± 0.15		
SDVVPEKERPLVIGHFNTASGVGF [MFSD9]	3.49 ± 0.26	3.52 ± 0.25		
RGLPLLKTDFGSCLLQPPSCPNGM [DLC1]	2.69 ± 0.22	2.67 ± 0.41		
TLALEALVQLRGRLTSQDWERVHL [ALG2]	2.24 ± 0.27	2.32 ± 0.24		
MAAGGSGVGGKRSSKSDADSGFLG [NOP53]	3.57 ± 0.22	3.96 ± 0.12		
RARRTEISKNSEKKMESEEDSNWE [GOLPH3L]	5.43 ± 0.49	5.35 ± 0.44		
TNEAACLLDNPLCADVLFILQDQE [RHOBTB1]	3.66 ± 0.24	3.82 ± 0.24		
NKGTETDNDPSCVHPIIKRRQCRP [PHTF1]	4.88 ± 0.085	4.81 ± 0.21		
GNEKITMQNLNDRLASYLDKVRAL [KRT15]	2.6 ± 0.73	2.78 ± 0.5		
GAAGRSHHLDEDEERERIERVRRI [KCTD10]	5.31 ± 0.23	5.07 ± 0.46		
YFRDLPEPLMTNKLSETFLQIYQY [DLC1]	2.37 ± 0.32	2.26 ± 0.24		

Sequence	protein stability index [1]	protein stability index [2]	protein stability index (treatment: DMSO, c terminus: native)	protein stability index (treatment: MLN4924 1 uM, 8 h, c terminus: native)
QVDVGDVNDNAPEVLLASLANPVL [PCDHGC5]	4.07 ± 0.28	4.21 ± 0.31		
IKGLQRKERLKPAHIHLQQLTCFS [KRT34]	2.3 ± 0.39	2.36 ± 0.37		
ESDTDGAGGNSSSSAAMQSSCSST [CCDC6]	5.58 ± 0.2	5.69 ± 0.3		
NLRRHVPDLESGSESGADTISVNQ [DLC1]	5.29 ± 0.27	5.25 ± 0.28		
YGSDQQHHLGSGSGAGGTGGPAGQ [MYOZ1]	4.93 ± 0.23	4.77 ± 0.28		
CTGLKKAHRTEFYRNLTHNPPSDF [STK38L]	2.85 ± 0.09	2.87 ± 0.28		
EACGRCEEVPEAYVDIHTGLSGSG [PYCR3]	4.29 ± 0.67	4.57 ± 0.11		
VFGRLRDENGRPYSPSQYALQYAG [NFE2L1]	2.86 ± 0.45	2.65 ± 0.36		
CFVLFSLTHTHTHTPNHRGINCFF [ANKRD44]	2.66 ± 0.032	2.82 ± 0.5		
VFPIKHYQDKIRPYIQLPSHSNIT [TRIB1]	2.5 ± 0.22	2.62 ± 0.22		
HFTAMVWKNTKKMGVGKASASDGS [GLIPR2]	3.2 ± 0.14	3.36 ± 0.36		
LPRGATAAVLAPDSSNASSEPSS [SEPHS2]			5.31 ± 0.21	5.53 ± 0.17
RYCDSILREMLSKKHAAYAWPFYK [BRD3]	2.07 ± 0.48	2.02 ± 0.26		
LRGGGQVLLGWTLHYFPFFLMGRV [POMT2]	3.01 ± 0.44	2.99 ± 0.37		
DLYALKSVKIPVRNHGILMETHKE [LYSMD4]	3.02 ± 0.14	3.25 ± 0.12		
GEPLEKVASVGNSRPTGQQLESLG [KISS1]	5.04 ± 0.25	5.1 ± 0.13		
DGASVNENHEIYMKDSMSAAEVGT [EPB41L3]	5.31 ± 0.28	5.34 ± 0.32		
KEEKCQGKGDDSETDKNNCSNAKA [KCNA4]	5.49 ± 0.088	5.55 ± 0.19		
GSESYKSSAGSAEQTAPGDSTGYM [EHMT1]	5.16 ± 0.25	5.21 ± 0.3		
ESLEDVAMYISQEEWGHQDPSKRA [ZNF263]	4.99 ± 0.069	5.03 ± 0.26		
ALDYLQNQRIIHRDMKPDNILLDE [STK32A]	3.14 ± 0.17	3.47 ± 0.45		
RCIGVTKPIFHSTKITSKHVKMML [PTGFR]	2.13 ± 0.27	2.15 ± 0.28		
